The values below come from publication PMC12809078.

The assay has as its target full-length SUMO-CtBP2 (human) (UniProt P56545). As to the kind of experiment: SEC; Superose 6 Increase 10/300 GL; 20 mM Tris-HCl pH 8.0, 150 mM NaCl, 2 mM DTT; 0.35 ml/min.

With “full-length SUMO-CtBP2, P56545 1-445 (natural protein; other documents disagree on this pair)”, the stoichiometry N (in general, a count of units in the complex or per binding partner) worked out at 4.
